Results from paper PMC8934665, “AT-hook peptides bind the major and minor groove of AT-rich DNA duplexes”.

Legend:
Conditions in all cases: tags: none; hairpin, 9 bp stem, 4 nt loop
[1] = molecular target: T1, ATHP3 (AT-hook peptide 3) (mammalian (species ), UniProt P52926 74-83); assay: ITC; two-site model, site 2, n2 = 1.1; ITC, UV melting and fluorescence in 1xBPE (6 mM Na2HPO4, 2 mM NaH2PO4, 1 mM Na2EDTA, pH 7.0), ITC 10 uM DNA; native MS probably in ammonium acetate (concentration not given); temperature not stated
T1 chain: KRPRGRPRKW

[2] = molecular target: T2, ATHP1 (AT-hook peptide 1) (mammalian (species ), UniProt P52926 26-34); assay: ITC; two-site model, site 2, n2 = 1.4; ITC, UV melting and fluorescence in 1xBPE (6 mM Na2HPO4, 2 mM NaH2PO4, 1 mM Na2EDTA, pH 7.0), ITC 10 uM DNA; native MS probably in ammonium acetate (concentration not given); temperature not stated
T2 chain: KRGRGRPRK

[3] = molecular target: T2, ATHP1 (AT-hook peptide 1); assay: ITC; two-site model, site 1, n1 = 1.3; ITC, UV melting and fluorescence in 1xBPE (6 mM Na2HPO4, 2 mM NaH2PO4, 1 mM Na2EDTA, pH 7.0), ITC 10 uM DNA; native MS probably in ammonium acetate (concentration not given); temperature not stated
[4] = molecular target: T1, ATHP3 (AT-hook peptide 3); assay: as above
[5] = molecular target: T3, ATHP2 (AT-hook peptide 2) (mammalian (species ), UniProt P52926 45-53); assay: native IMS-MS; Hoechst 33258 in minor groove, 1:1:1 complex; ITC, UV melting and fluorescence in 1xBPE (6 mM Na2HPO4, 2 mM NaH2PO4, 1 mM Na2EDTA, pH 7.0), ITC 10 uM DNA; native MS probably in ammonium acetate (concentration not given); temperature not stated
T3 chain: PKRPRGRPK

B1: FL876 (structured_DNA)
DNA: GGATATTGCCCCCGCAATATCC
Ka [1]: 1.1e+06 M⁻¹
Ka [2]: 4e+06 M⁻¹
Ka [3]: 1.9e+08 M⁻¹
Ka [4]: 1.1e+07 M⁻¹
binding result [5]: binds
